According to the supplement of paper PMC10567573:

B1: KRT71 (parent)
chain: ELRNVQDVVEDYKKRYEEEINKRT

Variants of: B1
Assay: protein stability index of a GFP-peptide fusion (GPS, HEK-293T) (PSI 1-6); higher = more stable
Conditions: c terminus: a fixed tail appended
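Note: lentivirally expressed fusions sorted by FACS into six bins by GFP to DsRed ratio, PSI derived from sequencing read proportions per bin multiplied by bin number.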

First: ELPNVQDVVEDYKKRYEEEINKRT
Second: ELENVQDVVEDYKKRYEEEINKRT
The protein stability index of the first is lower: 4.1 for the first, 4.15 for the second.

Compared with ELMNVQDVVEDYKKRYEEEINKRT, ELYNVQDVVEDYKKRYEEEINKRT is lower in protein stability index: 4.14 for the first, 3.86 for the second.

Going from ELRNVQDVVEDYKKRYNEEINKRT to ELRNVQDVVEDYKKRYDEEINKRT, the protein stability index falls from 4.29 to 3.23.

Going from ELRNVQDVVEDYKKRYVEEINKRT to ELRNVQDVVEDYKKRYAEEINKRT, the protein stability index falls from 3.93 to 2.84.

Compared with ELRNVQDVVEDYWKRYEEEINKRT, ELRNVQDVVEDYIKRYEEEINKRT is lower in protein stability index: 3.34 for the first, 3.27 for the second.

Compared with ELRNVQDVVEDYNKRYEEEINKRT, ELRNVQDVVEDYRKRYEEEINKRT is higher in protein stability index: 3.34 for the first, 4.62 for the second.

First: ELRNVQDVVEDYQKRYEEEINKRT
Second: ELRNVQHVVEDYKKRYEEEINKRT
The protein stability index of the first is higher: 3.71 for the first, 3.13 for the second.

ELRNVQMVVEDYKKRYEEEINKRT and ELRNVQCVVEDYKKRYEEEINKRT are the same in protein stability index: 3.35 for the first, 3.35 for the second.

Compared with ELRNVQEVVEDYKKRYEEEINKRT, ELRNVQLVVEDYKKRYEEEINKRT is higher in protein stability index: 3.1 for the first, 3.54 for the second.

First: ELRNVQDVVEDLKKRYEEEINKRT
Second: ELRNVQDVVEDMKKRYEEEINKRT
The protein stability index of the first is lower: 3.22 for the first, 4.56 for the second.

First: ELRNVQDVVEDCKKRYEEEINKRT
Second: ELRNVQDVVEDTKKRYEEEINKRT
The protein stability index of the first is higher: 4.07 for the first, 4.05 for the second.

Going from ELRNVQDVVEDVKKRYEEEINKRT to ELRNVQDVVEDHKKRYEEEINKRT, the protein stability index falls from 4.23 to 4.09.

First: ELRNVQDVVEDIKKRYEEEINKRT
Second: ELRNVQDVVEDEKKRYEEEINKRT
The protein stability index of the first is higher: 3.13 for the first, 2.66 for the second.

Compared with EDRNVQDVVEDYKKRYEEEINKRT, ESRNVQDVVEDYKKRYEEEINKRT is lower in protein stability index: 5.94 for the first, 5.01 for the second.

Compared with ENRNVQDVVEDYKKRYEEEINKRT, ELRNVQDVVEDYKKPYEEEINKRT is lower in protein stability index: 5.02 for the first, 4.78 for the second.

Compared with ELRNVQDVVEDYKKAYEEEINKRT, ELRNVQDVVEDYKKEYEEEINKRT is lower in protein stability index: 4.63 for the first, 3.49 for the second.

Compared with ELRNVQDVVYDYKKRYEEEINKRT, ELRNVQDVVCDYKKRYEEEINKRT is higher in protein stability index: 3.26 for the first, 3.62 for the second.

First: ELRNVQDVVFDYKKRYEEEINKRT
Second: ELRNVQDVVHDYKKRYEEEINKRT
The protein stability index of the first is higher: 4.36 for the first, 3.71 for the second.

First: ELRNVQDVVEDYKKRYEEEINART
Second: ELRNVQDVVEDYKKRYEEEINPRT
The protein stability index of the first is higher: 3.74 for the first, 3.47 for the second.

Compared with ELRNVQDVVEDYKKRYEEEINKIT, ELRNVQDVVEDYKKRYEEEINKHT is higher in protein stability index: 3.72 for the first, 4.09 for the second.

Going from ELRNVQDVVEDYKKRYEEEINKNT to ELRNVQDVVEDYKKRYEEEINKVT, the protein stability index falls from 4.11 to 3.93.

Compared with ELRNVQDVVEDYKKRYEEEINKFT, ELRNVQDVSEDYKKRYEEEINKRT is higher in protein stability index: 3.71 for the first, 4.35 for the second.

Compared with ELRNVQDVKEDYKKRYEEEINKRT, ELRNVQDVWEDYKKRYEEEINKRT is higher in protein stability index: 3.48 for the first, 4.36 for the second.

First: ELRNVQDVTEDYKKRYEEEINKRT
Second: ELRNVQDVQEDYKKRYEEEINKRT
The protein stability index of the first is higher: 3.73 for the first, 3.66 for the second.

First: ELRNVSDVVEDYKKRYEEEINKRT
Second: ELRNVPDVVEDYKKRYEEEINKRT
The protein stability index of the first is lower: 4.01 for the first, 4.41 for the second.

Going from ELRNVQDVVEDYKKRYEEEIVKRT to ELRNVQDVVEDYKKRYEEEITKRT, the protein stability index falls from 4.3 to 2.89.

Going from ELRNVQDVVEDYKKRYEEEIDKRT to ELRNVQDVVEDYKKRYESEINKRT, the protein stability index falls from 3.8 to 3.23.

First: ELRNVQDVVEDYKKRYEYEINKRT
Second: ELRNVQDVVEDYKKRYEWEINKRT
The protein stability index of the first is higher: 3.85 for the first, 3.11 for the second.

First: ELRNVQDVVEDYKKRYEKEINKRT
Second: ELRNVQDVVEDYKKRYEDEINKRT
The protein stability index of the first is lower: 3.03 for the first, 3.48 for the second.

Compared with ELRNVQDVVEDYKKRYEESINKRT, ELRNVQDVVEDYKKRYEEYINKRT is lower in protein stability index: 3.69 for the first, 2.88 for the second.

Going from ELRNVQDVVEDYKKRYEETINKRT to ELRNVQDVVEDYKKRYEEDINKRT, the protein stability index falls from 4.16 to 3.24.

Compared with ELRNVQDVVEDYKKRYEEFINKRT, ELRNVQDVVEDYKKRYEEETNKRT is higher in protein stability index: 3.36 for the first, 3.65 for the second.

Going from ELRNVQDVVEDYKKRYEEEANKRT to ELRNVQDVVEDYKKRYEEEMNKRT, the protein stability index falls from 4.88 to 4.12.

First: ELRNVQDVVEDYKKRYEEENNKRT
Second: ELRNVQDWVEDYKKRYEEEINKRT
The protein stability index of the first is higher: 4 for the first, 3.73 for the second.

First: ELRNVQDHVEDYKKRYEEEINKRT
Second: ELRNVQDLVEDYKKRYEEEINKRT
The protein stability index of the first is lower: 2.88 for the first, 4.3 for the second.

Compared with ELRNVQDFVEDYKKRYEEEINKRT, ELRNVQDVVEDYKKRKEEEINKRT is lower in protein stability index: 3.97 for the first, 3.75 for the second.

First: ELRNVQDVVEDYKKRQEEEINKRT
Second: ELRNVQDVVEDYKKRGEEEINKRT
The protein stability index of the first is higher: 3.52 for the first, 2.71 for the second.

Going from ELRNVQDVVEDYKKRVEEEINKRT to ELRNVQDVVECYKKRYEEEINKRT, the protein stability index rises from 3.76 to 3.98.

Compared with ELRNVQDVVEDYKGRYEEEINKRT, ELRNVQDVVEDYKTRYEEEINKRT is lower in protein stability index: 4.76 for the first, 3.65 for the second.

Compared with ELRNVQDVVEDYKHRYEEEINKRT, ELRNWQDVVEDYKKRYEEEINKRT is lower in protein stability index: 4.26 for the first, 3.7 for the second.

Compared with ELRNRQDVVEDYKKRYEEEINKRT, ELRNHQDVVEDYKKRYEEEINKRT is higher in protein stability index: 3.22 for the first, 4.37 for the second.

Compared with ELRNEQDVVEDYKKRYEEEINKRT, LLRNVQDVVEDYKKRYEEEINKRT is lower in protein stability index: 4.43 for the first, 3.9 for the second.

Compared with GLRNVQDVVEDYKKRYEEEINKRT, SLRNVQDVVEDYKKRYEEEINKRT is higher in protein stability index: 2.72 for the first, 4.07 for the second.

First: ELRDVQDVVEDYKKRYEEEINKRT
Second: ELRCVQDVVEDYKKRYEEEINKRT
The protein stability index of the first is higher: 4.68 for the first, 3.9 for the second.

Going from ELRYVQDVVEDYKKRYEEEINKRT to ELRFVQDVVEDYKKRYEEEINKRT, the protein stability index falls from 3.59 to 3.11.

Compared with ELRNVQDVVEDYKKRYEEEINKRQ, ELRNVQDVVEDYKKRYEEEINKRS is lower in protein stability index: 4.56 for the first, 3.4 for the second.

First: ELRNVQDVVEDYKKRYEEEINKRL
Second: ELRNVQDVVEDYKKRYEEEINKRF
The protein stability index of the first is higher: 3.58 for the first, 2.85 for the second.
